Source: patent US20250361322A1 (ICONIC THERAPEUTICS, published 2025)
Numbering of substitutions follows the chain as printed.

B1: 54E (antibody, human IgG1, V domains shown)
VH: QVQLVQSGAEVKKPGASVKVSCKASGYTFANYYMHWVRQAPGQGLEWMGIINPSGGITVYAQKFQGRVTMTRDTSTSTVYMELSSLRSEDTAVYYCARGGSKVAALAFDIWGQGTMVTVSS
VL: DIQMTQSPSSLSASVGDRVTITCQASQDISNSLNWYQQKPGKAPKLLIYDASNLETGVPSRFSGSRSGTDFTFTISSLQPEDIATYYCQQYNFHPLTFGGGTKVEIK
notes: Human IgG1; also called antibody designated 54E
B2: 1G (antibody, human IgG1, V domains shown)
VH: EVQLLESGGGLVQPGGSLRLSCAASGFTFSSYAMAWVRQAPGKGLEWVSAISGSGGLTYYADSVKGRFTISRDNSKNTLYLQMNSLRAEDTAVYYCAKAPYGYYMDVWGKGTTVTVSS
VL: not shown
notes: Human IgG1; also called antibody designated 1G
B3: 39A (antibody, human IgG1, V domains shown)
VH: QVQLVQSGAEVKKPGSSVKVSCKASGGTFSSNAIGWVRQAPGQGLEWMGSIIPIIGFANYAQKFQGRVTITADESTSTAYMELSSLRSEDTAVYYCARDSGYYYGASSFGMDVWGQGTTVTVSS
VL: EIVMTQSPATLSVSPGERATLSCRASQSVSSNLAWYQQKPGQAPRLLIYGASTRATGIPARFSGSGSGTEFTLTISSLQSEDFAVYYCEQYNNLPLTFGGGTKVEIK
notes: Human IgG1; also called antibody designated 39A
B4: 1F (antibody, human IgG1, V domains shown)
VH: B2 VH with S31D, A35G, A50T
VL: not shown
notes: Human IgG1; also called antibody designated 1F
B5: 25A (antibody, human IgG1, V domains shown)
VH: QVQLVQSGAEVKKPGASVKVSCKASGYTFDVYGISWVRQAPGQGLEWMGWIAPYNGNTNYAQKLQGRVTMTTDTSTSTAYMELRSLRSDDTAVYYCARDAGTYSPFGYGMDVWGQGTTVTVSS
VL: DIQMTQSPSTLSASVGDRVTITCRASQSISSWLAWYQQKPGKAPKLLIYKASSLESGVPSRFSGSGSGTEFTLTISSLQPDDFATYYCQQFQSLPPFTFGGGTKVEIK
notes: Human IgG1; also called antibody designated 25A; Antibody Clone 25A
B6: anti-TF antibody 29E conjugated to MC-vc-PAB-MMAE (antibody, IgG1, V domains shown)
VH: QVQLVESGGGVVQPGRSLRLSCAASGFTFRSYGMHWVRQAPGKGLEWVAVITYDGINKYYADSVEGRFTISRDNSKNTLYLQMNSLRAEDTAVYYCARDGVYYGVYDYWGQGTLVTVSS
VL: not shown
modifications: MC-vc-PAB-MMAE on cysteines of the partially reduced antibody (chain and positions not stated), DAR 3-4
notes: Antibody-drug conjugate (primary ADC) of the IgG1 antibody; also called 29E ADC
B7: anti-TF antibody 39A conjugated to MC-vc-PAB-MMAE (antibody, IgG1, V domains shown)
VH: B3 VH
VL: B3 VL
modifications: MC-vc-PAB-MMAE on cysteines of the partially reduced antibody (chain and positions not stated), DAR 3-4
notes: Antibody-drug conjugate (primary ADC) of the IgG1 antibody; also called 39A ADC
B8: anti-TF antibody 54E conjugated to MC-vc-PAB-MMAE (antibody, IgG1, V domains shown)
VH: B1 VH
VL: B1 VL
modifications: MC-vc-PAB-MMAE on cysteines of the partially reduced antibody (chain and positions not stated), DAR 3-4
notes: Antibody-drug conjugate (primary ADC) of the IgG1 antibody; also called 54E ADC
B9: anti-TF antibody 25G1 conjugated to MC-vc-PAB-MMAE (antibody, IgG1, V domains shown)
VH: B5 VH with D30R, V31S, I51V, N55S, F106Y
VL: B5 VL with Q27H, S30D, S53Y, Q90L
modifications: MC-vc-PAB-MMAE on cysteines of the partially reduced antibody (chain and positions not stated), DAR 3-4
notes: Antibody-drug conjugate (primary ADC) of the IgG1 antibody; also called 25G1 ADC
B10: 25A5-T (antibody, human IgG1, V domains shown)
VH: B5 VH with V31A, N55S
VL: B5 VL with Q27E, S31N, S52Y, S56Y, S93K
notes: Human IgG1; also called antibody designated 25A5-T

Target: T1, human Tissue Factor (TF) (human, UniProt P13726 33-295)
Assay: cell-based or functional assay

Binder	% FXa at 12.5 nM antibody [%]	% FXa at 25 nM antibody [%]	% FXa at 50 nM antibody [%]	% FXa at 100 nM antibody [%]
B1	53	44	41	42
B2	55	48	41	41

Target: T1, human Tissue Factor (TF)
Assay: cell-based or functional assay
Remark: another data set of the same source

Binder	% IL8 at 2.56 nM antibody [%]	% IL8 at 6.4 nM antibody [%]	% IL8 at 16 nM antibody [%]	% IL8 at 40 nM antibody [%]	% IL8 at 100 nM antibody [%]
B3	52	6	2	2	3
B1	48	8	3	2	2
B4	18	3	2	2	2
B2	26	4	3	2	2
B5	43	11	10	8	9

Target: T1, human Tissue Factor (TF)
Assay: cell-based or functional assay
Remark: another data set of the same source

Binder	% GM-CSF at 2.56 nM antibody [%]	% GM-CSF at 6.4 nM antibody [%]	% GM-CSF at 16 nM antibody [%]	% GM-CSF at 40 nM antibody [%]	% GM-CSF at 100 nM antibody [%]
B3	42	8	5	5	7
B1	38	10	5	5	5
B4	27	8	6	6	6
B2	34	9	7	7	7
B5	57	24	22	19	22

Target: T2, human Tissue Factor (hTF) (human, UniProt P13726 33-295)
Assay: cell-based or functional assay

Binder	IC50, cell viability of A431 cells, Primary ADC, Continuous (FIG. 20A) [nM]	IC50, cell viability of HPAF-II cells, Primary ADC, Continuous (FIG. 22E) [nM]	IC50, cell viability of MDA-MB-231 cells, Primary ADC, Continuous (FIG. 22D) [nM]
B6	0.06	0.04	0.07
B7	0.05	0.04	0.05
B8	0.07		
B9	0.06	0.04	0.09

Target: T2, human Tissue Factor (hTF)
Assay: cell-based or functional assay
Remark: another data set of the same source

Binder	IC50, cell viability of A431 cells, Primary ADC, 4 hr, followed by washout (FIG. 20B) [nM]	IC50, cell viability of A431 cells, Primary ADC, 4 hr, followed by washout, absence of FVIIa (FIG. 21A) [nM]
B6	0.2	0.13
B7	0.12	0.09
B8	0.26	0.2
B9	0.19	0.1

Target: T1, human Tissue Factor (TF)
Assay: flow cytometry, A431 cells; antibody at 100 nM; competitor 20 nM 25A-Alexa488
Experimental: (§1) After another 1 hr incubation on ice, cells were washed, stained with a viability dye, and analyzed by flow cytometry. The Alexa488 fluorescence data from viable cells was summarized using median fluorescence intensity.

Binder	% 25A binding [%]
B1	99
B4	95
B2	75
B5	3

Target: T1, human Tissue Factor (TF)
Assay: flow cytometry, A431 cells; antibody at 100 nM; competitor 20 nM 43Ea-Alexa488
Experimental: as §1

Binder	% 43Ea binding [%]
B1	96
B4	77
B2	58
B5	1

Target: T1, human Tissue Factor (TF)
Assay: flow cytometry, MDA-MB-231 cells; competitor 20 nM FVII-Fc-Alexa488; antibody at 28 nM
Experimental: as §1

Binder	% FVIIa [%]
B3	2
B1	3
B4	7
B2	7

Target: T1, human Tissue Factor (TF)
Assay: flow cytometry, MDA-MB-231 cells; competitor 20 nM FVII-Fc-Alexa488; antibody at 83 nM
Experimental: as §1

Binder	% FVIIa [%]
B3	2
B1	3
B4	7
B2	7
B5	97

Target: T1, human Tissue Factor (TF)
Assay: flow cytometry, MDA-MB-231 cells; competitor 20 nM FVII-Fc-Alexa488; antibody at 250 nM
Experimental: as §1

Binder	% FVIIa [%]
B3	2
B1	2
B4	6
B2	6
B5	98

Target: T1, human Tissue Factor (TF)
Assay: flow cytometry, MDA-MB-231 cells; competitor 20 nM FVII-Fc-Alexa488; antibody at 9.25 nM
Experimental: as §1

Binder	% FVIIa [%]
B3	2
B1	11
B4	7
B2	7
B5	100

Target: T3, human Tissue Factor on human TF-positive cells (human, UniProt P13726 33-295)
T3 construct: also called hTF; CD142
Assay: flow cytometry, titration of the MC-vc-PAB-MMAE ADC on HCT-116 cells (human TF), 4-parameter fit of MFI

Binder	EC50 [nM]
B6	0.25
B7	0.1
B8	0.33
B9	0.17

Target: T4, rTF (rat TF) construct on HEK293 cells (rat, UniProt P42533 29-252)
T4 construct: not shown: transmembrane/cytoplasmic anchor of the cell-surface construct
Assay: flow cytometry (live cell staining), antibody titration 1:3 from 250 nM on HEK293 cells transfected with rTF

T4 sequence (P42533 29-252 limits assumed): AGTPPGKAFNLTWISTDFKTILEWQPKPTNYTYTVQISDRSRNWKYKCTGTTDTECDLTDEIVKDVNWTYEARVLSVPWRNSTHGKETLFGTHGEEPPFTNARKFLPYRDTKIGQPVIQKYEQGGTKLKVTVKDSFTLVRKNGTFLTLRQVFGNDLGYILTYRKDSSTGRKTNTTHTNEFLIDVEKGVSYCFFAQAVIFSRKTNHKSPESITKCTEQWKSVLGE

Binder	binding result
B10	no binding (tested: 250 nM)
